Data on 1 sequence can be found in doi:10.1101/2020.02.27.968578.

In data set [1] the target is EGFP (UniProt P42212). As to the kind of experiment: cited. The conditions noted are these: PBS, 5 mM MgCl2, pH 7.4, room temperature, 5 min; 50 nM GFP, excitation 480 nm; cited from earlier work.
In data set [2] the target is CFP (UniProt P42212). Put plainly: cited. The conditions noted are these: PBS, 5 mM MgCl2, pH 7.4, room temperature, 5 min; 50 nM GFP, excitation 480 nm; cited from earlier work.
In data set [3] the target is YFP (UniProt P42212). As to the kind of experiment: cited. Conditions: PBS, 5 mM MgCl2, pH 7.4, room temperature, 5 min; 50 nM GFP, excitation 480 nm; cited from earlier work.
Data set [4] addresses EGFP (UniProt P42212). As to the kind of experiment: GFP fluorescence quenching titration. The conditions noted are these: PBS, 5 mM MgCl2, pH 7.4, room temperature, 5 min; 50 nM GFP, excitation 480 nm.

For “GGGAGCUUCUGGACUGCGAUGGGAGCACGAAACGUCGUGGCGCAAUUGGGUGGGGAAAGUCCUUAAAAGAGGGCCACCACAGAAGC [AP3 (GFP aptamer)]”, the Kd in data set [1] was 4 nM; in data set [2], 10 nM; in data set [3], 10 nM; in data set [4], 4 nM.
